The text below walks through data of PMC8831596, “Structures of highly flexible intracellular domain of human α7 nicotinic acetylcholine receptor” (Nature Communications, 2022).

To fix the notation:
B1: PDZ domain of the intracellular scaffold protein PICK1 (domain or fragment, UniProt Q9NRD5 22-105, looked up)
chain: KVTLQKDAQNLIGISIGGGAQYCPCLYIVQVFDNTPAALDGTVAAGDEITGVNGRSIKGKTKVEVAKMIQEVKGEVTIHYNKLQ
notes: PICK1, PDZ domain; also called PICK1 PDZ domain
B2: human α7 nicotinic acetylcholine receptor TMD + ICD construct (L209-V472) (domain or fragment, UniProt P36544 231-494, looked up)
chain: LYYGLNLLIPCVLISALALLVFLLPADSGEKISLGITVLLSLTVFMLLVAEIMPATSDSVPLIAQYFASTMIIVGLSVVVTVIVLQYHHHDPDGGKMPKWTRVILLNWCAWFLRMKRPGEDKVRPACQHKQRRCSLASVEMSAVAPPPASNGNLLYIGFRGLDGVHCVPTPDSGVVCGRMACSPTHDEHLLHGGQPPEGDPDLAKILEEVRYIANRFRCQDESEAVCSEWKFAACVVDRLCLMAFSVFTIICTIGILMSAPNFV
notes: human α7 nicotinic acetylcholine receptor, transmembrane domain plus intracellular domain, 264 residues L209-V472; Single-cysteine, spin-labelled and isotope-labelled versions gave the NMR and ESR restraints for the structure; also called α7nAChR TMD + ICD; source: E. coli Rosetta 2(DE3) pLysS, purified (NiNTA, SEC; pentamer fraction, in DPC or LDAO)
B3: human α7 nicotinic acetylcholine receptor TMD+ICD construct used for NMR (domain or fragment)
chain: SNAEEELYYGLNLLIPCVLISALALLVFLLPADSGEKISLGITVLLSLTVFMLLVAEIMPSTSDSSPSIAQYFASTMIIVGLSVVVTVIVLQYHHHDPDGGKMPKWTRVILLNWCAWFLRMKRPGEDKVRPACQHKQRRCSLASVEMSAVAPPPASNGNLLYIGFRGLDGVHCVPTPDSGVVCGRMACSPTHDEHLLHGGQPPEGDPDLAKILEEVRYIANRFRCQDESEAVCSEWKFAACVVDRLCLMAFSVFTIICTIGILMSAPNFVEE
notes: also called α7nAChR(TMD+ICD)NMR; α7nAChR TMD-ICD; source: E. coli Rosetta 2(DE3) pLysS, purified (NiNTA, SEC)
B4: α7nAChR TMD+ICD C219, single-cysteine construct labelled with MTSL (domain or fragment)
chain: B3 chain
modifications: MTSL on C219

The target in data set [1] is T1, full-length human α7 nicotinic acetylcholine receptor (human, UniProt P36544 23-502).
T1 construct: human α7 nicotinic acetylcholine receptor, UniProtKB P36544 ACHA7_HUMAN, full length; also called α7nAChR; full length α7nAChR; source: E. coli Rosetta 2(DE3) pLysS, purified (NiNTA, SEC)
T1 sequence (P36544 23-502): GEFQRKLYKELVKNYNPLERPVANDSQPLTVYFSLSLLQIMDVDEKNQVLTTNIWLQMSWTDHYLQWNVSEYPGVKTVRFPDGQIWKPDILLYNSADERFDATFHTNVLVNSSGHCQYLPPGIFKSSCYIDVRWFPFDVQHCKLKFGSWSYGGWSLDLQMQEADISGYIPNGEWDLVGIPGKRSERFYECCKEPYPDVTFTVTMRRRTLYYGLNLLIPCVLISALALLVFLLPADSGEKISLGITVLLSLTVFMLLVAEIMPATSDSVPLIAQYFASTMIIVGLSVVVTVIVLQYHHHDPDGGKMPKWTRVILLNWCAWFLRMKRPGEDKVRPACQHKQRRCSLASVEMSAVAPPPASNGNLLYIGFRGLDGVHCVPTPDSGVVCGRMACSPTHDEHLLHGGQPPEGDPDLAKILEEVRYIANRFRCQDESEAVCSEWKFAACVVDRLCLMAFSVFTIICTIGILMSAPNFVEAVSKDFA
The data set can be described thus: SPR; steady state; α7nAChR immobilised on an NTA sensor chip (1000-2000 RU), PICK1 PDZ domain flowed at 30 μl/min, 25 °C, Biacore 3000; receptor in 0.05% DDM; apparent dissociation constants, Langmuir isotherm, n=3. The settings on record: both partners purified. (In general: SPR reads the build-up and loss of mass on a sensor chip optically.)

Data set [2] has as its target T1, full-length human α7 nicotinic …. The data set can be described thus: SPR; steady state; α7nAChR immobilised on an NTA sensor chip (1000-2000 RU), PICK1 PDZ domain flowed at 30 μl/min, 25 °C, Biacore 3000; receptor in 0.05% LDAO; apparent dissociation constants, Langmuir isotherm, n=3. The note with it: both partners purified.
Data set [3] deals with the molecule itself. The data set can be described thus: not stated; result shown in Supplementary Fig. 2 (not shown); the methods tell only that the pentamer fraction was isolated by SEC (S200 10/300, 20 mM HEPES pH 7.4, 300 mM NaCl, 0.2% DPC or 0.1% LDAO).
Data set [4] concerns the molecule itself. The data set can be described thus: SEC; Superdex 200 10/300 Increase GL, 10 mM sodium acetate pH 4.8, 100 mM NaCl, 0.05% LDAO; elution peak at 12.6 ml.
For data set [5], the target named is B1. The data set can be described thus: SPR; steady state; α7nAChR immobilised on an NTA sensor chip (1000-2000 RU), PICK1 PDZ domain flowed at 30 μl/min, 25 °C, Biacore 3000; receptor in 0.05% DDM; apparent dissociation constants, Langmuir isotherm, n=3. The note with it: both partners purified.
For data set [6], the target named is B1. The data set can be described thus: SPR; steady state; α7nAChR immobilised on an NTA sensor chip (1000-2000 RU), PICK1 PDZ domain flowed at 30 μl/min, 25 °C, Biacore 3000; receptor in 0.05% LDAO; apparent dissociation constants, Langmuir isotherm, n=3. The settings on record: both partners purified.
Data set [7] concerns the molecule itself. The data set can be described thus: DEER ESR; MTSL-labelled TMD+ICD C219 in LDAO micelles; non-adjacent/adjacent distance ratio ~1.6.

Consider B1, for which the Kd in data set [1] was determined as 3.3 µM; in data set [2] it was 3.1 µM. As for B2, in data set [3], the stoichiometry N (in general, a count of units in the complex or per binding partner) was 5. With B3, in data set [4], the “stoichiometry N” value turned out to be 5. Also, the Kd in data set [5] is 4.2 µM; in data set [6] it was 4 µM. With B4, the “stoichiometry N” value in data set [7] was determined as 5.
